According to patent publication US20160304856A1 (AVANTGEN, published 2016):

Target: T1, Prostate-Specific Antigen (PSA) (human, UniProt P07288 25-261)
T1 construct: Used biotinylated or PE-labelled in flow cytometry and coated on plates in ELISA; also called PSA antigen
Assay: method and antibody format not stated

T1 sequence (P07288 25-261 limits assumed): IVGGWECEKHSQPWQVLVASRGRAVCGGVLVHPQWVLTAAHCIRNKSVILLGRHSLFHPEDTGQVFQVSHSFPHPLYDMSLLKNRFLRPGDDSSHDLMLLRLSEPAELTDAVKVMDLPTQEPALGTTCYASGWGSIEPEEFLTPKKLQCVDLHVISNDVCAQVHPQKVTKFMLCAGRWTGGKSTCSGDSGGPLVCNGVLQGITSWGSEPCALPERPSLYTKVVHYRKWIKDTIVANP

Kd: 0.08 nM
B1: novel anti-PSA antibody (antibody, V domains shown)
VH: EVQLLESGGGLVQPGGSLRLSCAASGFTVSNYAMSWVRQAPGKGLEWVGDIYPTSGYTDYADSVKGRFTISRDNSKNTLYLQMNSLRAEDTAVYYCARWGYDYKYVASEGSWLFDYWGQGTLVTVSS
VL: DIQMTQSPSSLSASVGDRVTITCRASQVSSTSLNWYQQKPGKAPKLLIYGASNLASGVPSRFSGSGSGTDFTLTISSLQPEDFATYYCQQYGHPPYTFGQGTKVEIK
notes: Identified from a single chain library
